For assay [1], the target named is T1, human IL-11Rα on transfected cells (human, UniProt Q14626 23-422).
T1 sequence: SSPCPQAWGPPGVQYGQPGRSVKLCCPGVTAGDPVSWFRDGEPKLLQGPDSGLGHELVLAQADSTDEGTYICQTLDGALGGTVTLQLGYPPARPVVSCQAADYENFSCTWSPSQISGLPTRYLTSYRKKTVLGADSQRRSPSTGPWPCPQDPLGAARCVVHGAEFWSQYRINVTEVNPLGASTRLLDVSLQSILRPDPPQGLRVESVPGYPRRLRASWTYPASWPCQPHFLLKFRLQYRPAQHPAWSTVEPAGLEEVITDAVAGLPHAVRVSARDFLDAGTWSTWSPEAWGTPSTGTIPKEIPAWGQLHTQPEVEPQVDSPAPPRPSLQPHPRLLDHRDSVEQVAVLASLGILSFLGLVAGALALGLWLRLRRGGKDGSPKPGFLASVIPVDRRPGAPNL
The assay can be described thus: cell-based or functional assay.

The target in assay [2] is T2, human IL-11Rα (form used in the assay not stated) (human, UniProt Q14626 23-363, limits assumed).
T2 construct: also called hIL-11R; hIL-11Rα
T2 sequence: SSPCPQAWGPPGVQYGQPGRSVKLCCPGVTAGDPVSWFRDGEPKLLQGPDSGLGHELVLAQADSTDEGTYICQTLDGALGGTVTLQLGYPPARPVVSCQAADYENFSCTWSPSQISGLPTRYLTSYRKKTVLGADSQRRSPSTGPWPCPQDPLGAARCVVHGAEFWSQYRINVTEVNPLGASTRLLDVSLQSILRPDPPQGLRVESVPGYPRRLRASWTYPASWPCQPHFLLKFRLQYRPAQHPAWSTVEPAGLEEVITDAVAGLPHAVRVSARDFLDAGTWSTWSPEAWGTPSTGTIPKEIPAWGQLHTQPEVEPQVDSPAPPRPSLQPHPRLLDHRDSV
Kind of assay: Biacore, pH 8.5, 37°C; some heterogeneity observed, an accurate KD difficult to determine. In general terms: In SPR one partner is held on a chip, and binding of the other changes the refractive index at the surface.

Assay [3] concerns the target T2, human IL-11Rα (form used in the assay …). The assay can be described thus: Biacore, pH 8.5, 37°C.

B1: hu8E2-TS-213 (antibody, V domains shown)
VH: EVQLLESGGGLVQPGGSLRLSCAASGFTFSWYSMTWVRQAPGKGLEWVSSIVPSGGHTQYADSVKGRFTISRDNSKNTLYLQMNSLRAEDTAVYYCAKGPGWGQFAVWGRGTLVTVSS
VL: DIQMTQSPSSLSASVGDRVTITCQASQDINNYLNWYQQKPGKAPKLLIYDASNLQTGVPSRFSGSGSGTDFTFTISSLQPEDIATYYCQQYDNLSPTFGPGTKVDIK
On to B1, for which, in assay [1], the “Fold increase in potency relative to 8E2” value turned out to be 1.2 fold and the IC50 (in general, the concentration at which inhibition is half-maximal) turned out to be 0.51 µg/mL. Further, the Kd (usually the equilibrium constant for the complex coming apart) in assay [2] was more than 9 nM.

B2: hu8E2-TS-312 (antibody, V domains shown)
VH: EVQLLESGGGLVQPGGSLRLSCAASGFTFSWYSMTWVRQAPGKGLEWVSSIVPSGGHTQYADSVKGRFTISRDNSKNTLYLQMNSLRAEDTAVYYCAKGPGWGSFDLWGRGTLVTVSS
VL: DIQMTQSPSSLSASVGDRVTITCQASQDIGQYVEWYQQKPGKAPKLLIYDASNLQTGVPSRFSGSGSGTDFTFTISSLQPEDIATYYCQQYDNLSPTFGPGTKVDIK
Take B2: in assay [3], the Kd was 1.76 nM. In assay [1], the “Fold increase in potency relative to 8E2” value is 1.2 fold and 0.29 µg/mL corresponded to half-maximal inhibition (IC50).

B3: hu8E2-TS-305 (antibody, V domains shown)
VH: EVQLLESGGGLVQPGGSLRLSCAASGFTFSWYSMTWVRQAPGKGLEWVSSIVPSGGHTQYADSVKGRFTISRDNSKNTLYLQMNSLRAEDTAVYYCAKGPGWGSFDLWGRGTLVTVSS
VL: DIQMTQSPSSLSASVGDRVTITCQASQDVGIYVEWYQQKPGKAPKLLIYDASNLQTGVPSRFSGSGSGTDFTFTISSLQPEDIATYYCQQYDNLSPTFGPGTKVDIK
In the case of B3, in assay [3], the affinity, expressed as Kd, was 1.58 nM. In addition, in assay [1], the “Fold increase in potency relative to 8E2” value worked out at 2.1 fold and the midpoint of inhibition, the IC50, lay at 0.23 µg/mL.

B4: hu8E2-TS-322 (antibody, V domains shown)
VH: EVQLLESGGGLVQPGGSLRLSCAASGFTFSWYSMTWVRQAPGKGLEWVSSIVPSGGHTQYADSVKGRFTISRDNSKNTLYLQMNSLRAEDTAVYYCAKGPGWGSFDLWGRGTLVTVSS
VL: DIQMTQSPSSLSASVGDRVTITCQASQDVHHYMEWYQQKPGKAPKLLIYDASNLQTGVPSRFSGSGSGTDFTFTISSLQPEDIATYYCQQYDNLSPTFGPGTKVDIK
For the molecule B4, in assay [3], the Kd stood at 6.01 nM. Further, in assay [1], the “Fold increase in potency relative to 8E2” value was 1.1 fold and the 50% inhibitory concentration (IC50) was found to be 0.33 µg/mL.

B5: hu8E2-TS-311 (antibody, V domains shown)
VH: EVQLLESGGGLVQPGGSLRLSCAASGFTFSWYSMTWVRQAPGKGLEWVSSIVPSGGHTQYADSVKGRFTISRDNSKNTLYLQMNSLRAEDTAVYYCAKGPGWGSFDLWGRGTLVTVSS
VL: DIQMTQSPSSLSASVGDRVTITCQASQDVSQYIEWYQQKPGKAPKLLIYDASNLQTGVPSRFSGSGSGTDFTFTISSLQPEDIATYYCQQYDNLSPTFGPGTKVDIK
Molecule B5 displayed a Kd in assay [3] of 1.69 nM. In assay [1], the “Fold increase in potency relative to 8E2” value amounted to 0.6 fold and the “IC50” value was 0.6 µg/mL.

B6: hu8E2-TS-313 (antibody, V domains shown)
VH: EVQLLESGGGLVQPGGSLRLSCAASGFTFSWYSMTWVRQAPGKGLEWVSSIVPSGGHTQYADSVKGRFTISRDNSKNTLYLQMNSLRAEDTAVYYCAKGPGWGSFDLWGRGTLVTVSS
VL: DIQMTQSPSSLSASVGDRVTITCQASQDVSGYVEWYQQKPGKAPKLLIYDASNLQTGVPSRFSGSGSGTDFTFTISSLQPEDIATYYCQQYDNLSPTFGPGTKVDIK
In assay [3], B6 yielded a Kd of 5.56 nM. Moreover, in assay [1], the “Fold increase in potency relative to 8E2” value worked out at 0.7 fold and half-maximal inhibition (IC50) was put at 0.51 µg/mL.

B7: hu8E2-TS-307 (antibody, V domains shown)
VH: EVQLLESGGGLVQPGGSLRLSCAASGFTFSWYSMTWVRQAPGKGLEWVSSIVPSGGHTQYADSVKGRFTISRDNSKNTLYLQMNSLRAEDTAVYYCAKGPGWGSFDLWGRGTLVTVSS
VL: DIQMTQSPSSLSASVGDRVTITCQASQDVSMYVEWYQQKPGKAPKLLIYDASNLQTGVPSRFSGSGSGTDFTFTISSLQPEDIATYYCQQYDNLSPTFGPGTKVDIK
The molecule B7 gave a Kd in assay [3] of 1.32 nM. In addition, in assay [1], the “Fold increase in potency relative to 8E2” value is 1.9 fold and it took 0.25 µg/mL to reach half-maximal inhibition (IC50).

B8: hu8E2-TS-310 (antibody, V domains shown)
VH: EVQLLESGGGLVQPGGSLRLSCAASGFTFSWYSMTWVRQAPGKGLEWVSSIVPSGGHTQYADSVKGRFTISRDNSKNTLYLQMNSLRAEDTAVYYCAKGPGWGSFDLWGRGTLVTVSS
VL: DIQMTQSPSSLSASVGDRVTITCQASQDVAMYIEWYQQKPGKAPKLLIYDASNLQTGVPSRFSGSGSGTDFTFTISSLQPEDIATYYCQQYDNLSPTFGPGTKVDIK
B8 returned a Kd in assay [3] of 2.09 nM. In addition, in assay [1], the “Fold increase in potency relative to 8E2” value was 0.4 fold and the “IC50” value came to 0.84 µg/mL.

B9: hu8E2-TS-306 (antibody, V domains shown)
VH: EVQLLESGGGLVQPGGSLRLSCAASGFTFSWYSMTWVRQAPGKGLEWVSSIVPSGGHTQYADSVKGRFTISRDNSKNTLYLQMNSLRAEDTAVYYCAKGPGWGSFDLWGRGTLVTVSS
VL: DIQMTQSPSSLSASVGDRVTITCQASQDVDKYVEWYQQKPGKAPKLLIYDASNLQTGVPSRFSGSGSGTDFTFTISSLQPEDIATYYCQQYDNLSPTFGPGTKVDIK
In assay [3], B9 registered a Kd of 1.07 nM. In assay [1], the “Fold increase in potency relative to 8E2” value was determined as 3.3 fold and the 50% inhibitory concentration (IC50) worked out at 0.15 µg/mL.

The record behind these values is US20160031999A1 (CSL, published 2016).
